Reference: the nanobody polyreactivity screen of Harvey et al. (2022)

Experiment: yeast display, Sf9 membrane polyspecificity reagent, FACS + sequencing; frameworks hold sequencing errors
Procedure, shortened: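 Nanobodies from a synthetic yeast display library (Saccharomyces cerevisiae BJ5465), induced 36–48 hours with galactose, were stained 1 hour at 4 °C with 10% biotinylated, detergent-solubilized Sf9 membrane reagent, enriched on streptavidin microbeads, then FACS-sorted. Anti-HA (expression) and streptavidin (reagent binding) fluorescence set low and high (top ~1%) gates. Polyreactivity labels come from the gate of origin. Genes were colony-PCR amplified, MiSeq 2 × 250 sequenced and filtered by CDR length.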

Sequence	polyreactivity (PSR sort gate)
QVQLVESGGGLVQAGGSLRLSCAASGIIFRPYAMGWYRQAPGKERELVASITLSGGSTYYADSVKGRFTISRDNAKNTVYLQMNSLKPEDTAVYYCNRYPRLRVVPSRYVKYDYWGQGTQVTVSS	low polyreactivity
QVHLVESGGGLVQAGGSLRLSCAASGYIFRRYAMGWYRQAPGKERELVAAISFSGGSTYYADSVKGRFTISRDNAKNSVYIQMNSLKPDDTAVYYCAGLSLLRYDYWGQGTQVTVSS	high polyreactivity
QVQLVESGGGLVQAGGSLRLSCAASGITFSRNVMGWYRQAPGKERELVAAISRSGGRTYYADSVKGRFTISRDNAKNTVYLQMNSLKPEDTAVYDCNRDIGGTSVLDDYWGQGTQVTVSS	low polyreactivity
QVQLVESGGCLVQAGGSLRLSCAASGSIFRYYVMGWYRQAPGKERELVAAISSRGGSTYYADSVKGRFTISRDNAKNTVYLQMNSLKPEDTAVYYCAAYRAYSTAVGMEYWGQGTQVTVSS	high polyreactivity
QVQLVESGGGLVHSGGSLRLSCAASGSIFRRNAMGWYIQAPGKERELVAAISASGGRTYADSVKGRFTISRDNAKNTVYLQMNSLKPEDTAVYYCAVRSYWRVDYWGQGTQVTVSS	high polyreactivity
QVQLVESSGGLVQAGGSLRLSCAASGFSFKRYAMGWYRQAPGTERELVAAINSGGSTNYADSVKGRFTMSRDNAKNTVYLQMNSLKPEDTAVYSCAASTPQYQYYYWGQGTQVTVSS	high polyreactivity
QVQLVESGGGLVQAGGSLRLSCAASGITFTYYAMGWYRPAPGKERELVAAITDRGGRTYYADSVKWRFTISRDNAKKTVYLQMNRLNPDDTAVYFCNTVPTSNSRTSVYFPYYYWGQGTQVTVSS	high polyreactivity
KVQLVESGGGLVQSGGRLRLSCAASGSTFQIYTMGWYRQAPGKERELVAAITNGGGSTYYADSVKGRFTISRDNAKNTVYFQMISLKPEDTAVYYCAAEQSYPLIILYDYWGQGTQVTVSS	low polyreactivity
QVQLVESGGGLVQAGGSLRLSCAASGYTFRYYAMGWYRQAPGKERELVAAINWSGGSTYYADSVKGRFTISRDNAKNTVYLQNNSLKPEDTAVYYCAADPDGDLDIDYDYWGLGTQVTVSS	low polyreactivity
QVQLHESGGGLVQAGGSLRLSCAASGTISYAGPRGWYRQAPGKERECVAGIGVGSNTNYADSVKGRYTIIRDNAKNTVYLQMNILKPEVTAVYYCAVGGYAPLGRPYWGQGTQVTVSS	low polyreactivity
QVQLVESGGGLVQAGGSLRLSCAASGRTFRYYVMGWYRQAPGKERELVARISWSGARTYYADSVKGRFTISRDHAKNTVYLQMNSLKPEDTAVYYCAADNPYYYRRDYWGQGTQVTVSS	low polyreactivity
QVQLVESGGGLVQAGGSLRLSCAASGSTFFNYAMGWYRQAPGKEREFVARIRWRGGSTYYADSVKGRFTISRDNAKNTVYLQMNSLKPEDTAVYYCNADYWGHGGLYDYWGQGTQVTVSS	high polyreactivity
QVQLVESGGGLVQAGGSLRLSCAASGSIFYRYDMGWYRQAPGKERELVADISWSSGRTYYADSVKGRFTISRDNAKNTVYLQMNSLKPEDTAVYYCATDDFWNVKFYAYYPEFDYWGQGSQVTVSS	low polyreactivity
QVQLVESGGGLVQAGGSLRLSCAASGIIFGRYTMGWYRQAPGKERELVAAITSSGITYYADSVKGRFTISRDNAKNTVYLQMNSLKPEDSAVYYCNADYSIPGYYWPYDYWGQGTQVTVSS	low polyreactivity
KVQLVESGGGLVQAGGSLRLSCAASGFIFGAYAMGWYRQAPGKERELVPSITWRGGSTYYADSVKGRFTISRDNAKNTVYLQMNSLKPEDTAVYYCAARVYLYNWQYFAYRAVDYWGQGTQVTVSS	high polyreactivity
QVQLVESGGGLVQAGGSLRLSCAASGFTFRYYVMGWYRQAPGKERELVAAISTRGGRTYYADSVKGRFTISRDNAKNTVYLQMNSLKPEDTAVYYCAKDAHHSYTWGYGYWGQGTQVTVSS	high polyreactivity
QVQLVESGGGLDQAGGSLRLTCAASGNTSEYYAMGWSRQAPGKERQLVAAIRSDVRTYYADSVKGRFTISRDNAKNTVYLQMNSLKPEDTAVYYCNADKSAWDYYLQTFNYWGQGTQVTVSS	high polyreactivity
